A word on the EC50: it is the concentration giving half of the maximal effect. Usually Kd stands for the constant that tells how readily two partners part at equilibrium. The low end stands for a tighter complex, the high end for a looser complex. Broadly, the EC50 (read off the curve) is the concentration at which the effect is half-maximal. Low readings indicate a more potent agent, high ones a less potent agent.

Experiment [1] addresses T1, NKp30 on NK cells (UniProt O14931 19-201, limits assumed).
T1 sequence (looked up): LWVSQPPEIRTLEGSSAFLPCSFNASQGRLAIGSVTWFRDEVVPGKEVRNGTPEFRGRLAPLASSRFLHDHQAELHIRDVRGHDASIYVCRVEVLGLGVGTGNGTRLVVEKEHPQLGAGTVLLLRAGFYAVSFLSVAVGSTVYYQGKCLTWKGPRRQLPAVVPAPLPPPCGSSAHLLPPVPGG
Description: flow cytometry (y axis MFI, x axis in nM); the legend of FIGS. 3a-3h names a stable expression cell line; fit value of a flat curve, far outside the range tested. In general terms: Flow cytometry measures light scatter and fluorescence of single cells or particles in a stream.

The target in experiment [2] is T2, human NKp30-his protein (KACTUS; Cat: NKP-HM430) (human, UniProt O14931 19-135, limits assumed).
T2 construct: Bought protein (KACTUS NKP-HM430); not shown: His tag
T2 sequence (looked up): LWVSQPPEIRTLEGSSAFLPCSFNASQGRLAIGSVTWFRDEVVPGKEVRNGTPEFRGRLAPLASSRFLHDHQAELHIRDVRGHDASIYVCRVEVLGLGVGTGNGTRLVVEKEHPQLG
Description: BLI (Octet Red96e), antibody captured on AHC sensor, 100 nM human NKp30-his in solution, 1:1 fit. The procedure:
(§1) After equilibration of the AHC sensor with 0.02% PBST (0.02% Tween 20, pH 7.4, 1*PBS) as buffer for 60 s, the NKp30 antibody in the sample plate was immobilized for 300 s and second equilibration was performed for 180 s. […] human NKp30-his protein (KACTUS; Cat: NKP-HM430) was bound with NKp30 antibody for 300 s and then dissociated for 600 s. After dissociation, 10 mM glycine (pH 2.0) was used as regeneration buffer to regenerate for 30 s.
Subtract the result plot for reference channel H1 from the test result plot. The experimental data fit the 1:1 binding model. The molecular weight of 35 kDa was used to calculate the molar concentration of human NKp30 protein.
(Biolayer interferometry detects binding as a change in optical thickness at a sensor tip.)

In experiment [3] the target is T1, NKp30 on NK cells. Description: flow cytometry (y axis MFI, x axis in nM); the legend of FIGS. 3a-3h names a stable expression cell line; Example 11 describes no cell assay.
Experiment [4] concerns the target T2, human NKp30-his protein (KACTUS; Cat: …). Description: BLI (Octet Red96e), method of Example 6: antibody on AHC sensor, human NKp30-his in solution; second run, Table 4 (Example 12 series with the CDR-modified and humanized variants). The procedure:
as §1
(§2) The affinity of the CDR-modified and humanized antibodies was tested according to the method of Example 6, and the results are shown in Table 4.

The target is the same in experiment [5]. Description: ELISA, Human-NKp30-His coated at 0.2 µg/mL, antibody from 10 µg/mL in 3-fold steps, goat anti-human Fc, OD450 (Example 11). The procedure: (§3) Human-NKp30-His (purchased from KACTUS, item No. NKP-HM430) was diluted to 0.2 μg/mL with the coating solution (1×PBS, pH 7.4), and was coated into 96-well enzyme-labelled plates at 100 μL/well and allowed to stand overnight at 4° C. The coating solution was poured off, the plate was washed with 1×PBST at 300 μL/well, washed with a plate washer for 4 times, and patted dry on a plate paper. The plate was blocked with 3% skimmed milk powder at 300 μL/well, and incubated at 37° C. for 1 h. The blocking solution was poured off, washed with a plate washer for 4 times, and patted dry on a plate paper. The reference product and the test product were diluted with 3% skimmed milk powder to 10 μg/mL, and the initial concentration was diluted by 3 times. A total of 11 gradients were diluted, and another blank well was set, and only diluent was added. It was incubated at 37° C. and 100 μL/well for 1 h. Liquid in the wells was discarded, and washed with a plate washer for 4 times, and patted dry on a plate paper. The goat anti-human Fc was diluted with 3% skimmed milk powder at 1: 20,000 and 100 μL/well, and incubated at 37° C. for 1 h. The plate was washed with a plate washer for 6 times, and patted dry on a plate paper. TMB color developing solution was added at 100 μL/well, and wrapped with an aluminum foil, and the color was developed at 37° C. for 8 minutes, protected from light. The termination solution 1 M HCl was added at 100 μL/well to terminate the color development reaction. It was read at 450 nm on an enzyme-labeled instrument.
On the technique in general: ELISA stands for enzyme-linked immunosorbent assay.

Experiment [6] shares this target. Described as above. The procedure: as §3
This is another data set of the same source.

Experiment [7] shares this target. The experiment is described as follows: BLI (Octet Red96e), method of Example 6: antibody on AHC sensor, human NKp30-his in solution. The procedure: as §1, §2
The target is the same in experiment [8]. Description: ELISA, Human-NKp30-His coated at 0.2 µg/mL, antibody from 10 µg/mL in 3-fold steps, goat anti-human Fc, OD450 (Example 11); the fit value lies above the highest concentration tested. The procedure:
as §3, with “TMB color developing solution was added at 100 μL/well, and wrapped with an aluminum foil, and the color was developed at 37° C. for 8 minutes, protected from light. The termination solution 1 M HCl was added at 100 μL/well to terminate the color development reaction.” left out

The target is the same in experiment [9]. The experiment is described as follows: ELISA, Human-NKp30-His coated at 0.2 µg/mL, antibody from 10 µg/mL in 3-fold steps, goat anti-human Fc, OD450 (Example 11); the curve stays low: fitted plateau about OD450 0.25, highest point about 0.4 at 3.3 µg/mL, about 0.2 at 10 µg/mL. The procedure: as §3, with “TMB color developing solution was added at 100 μL/well, and wrapped with an aluminum foil, and the color was developed at 37° C. for 8 minutes, protected from light. The termination solution 1 M HCl was added at 100 μL/well to terminate the color development reaction.” left out

The target of experiment [10] is T1, NKp30 on NK cells. Description: cell-based or functional assay.
Experiment [11] addresses T2, human NKp30-his protein (KACTUS; Cat: …). The experiment is described as follows: ELISA, Human-NKp30-His coated at 0.2 µg/mL, antibody from 10 µg/mL in 3-fold steps, goat anti-human Fc, OD450 (Example 11). The procedure: as §3, with “TMB color developing solution was added at 100 μL/well, and wrapped with an aluminum foil, and the color was developed at 37° C. for 8 minutes, protected from light. The termination solution 1 M HCl was added at 100 μL/well to terminate the color development reaction.” left out
The source holds these as a separate data set.

As for isotype control antibody, in experiment [1], the EC50 came to 241000 nM.

B1: antibody 23 (antibody, V domains shown)
VH: EVQLVESGGGLVQPGGSLRLSCAASGSIFSPNGIGWYRQAPGKLRELVAGITGNGLTDYADSVKGRFTISRDSAKNTVYLQMNSLKTEDTAVYYCNLLLNHAEWGQGTQVTVSS
notes: expressed in CHO cells; also called chimeric antibody 23
For B1, the Kd in experiment [2] is 2.34 nM; in experiment [4], 0.844 nM. The values for the EC50 in [3], in experiment [5] and in [6] were 0.658 nM, 7.46 ng/mL and 2.38 ng/mL, respectively. Also, in experiment [5], the “EC50 (read off the curve)” value was roughly 7 ng/mL.

B2: antibody 23-hu45 (antibody, V domains shown)
VH: EVQLVESGGGLVQPGGSLRLSCAASGSIFSPNGIGWYRQAPGKLRELVAGITGNGLTDYAESVKGRFTISRDNSKNTVYLQMNSLRAEDTAVYYCNLLLNHAEWGQGTLVTVSS
In [7], B2 gave a Kd of 0.991 nM. In addition, the “EC50 (read off the curve)” value in experiment [5] is roughly 3 ng/mL. In experiment [6], it took 2.83 ng/mL to reach a half-maximal effect (EC50).

B3: antibody 23-hu49 (antibody, V domains shown)
VH: EVQLVESGGGLVQPGGSLRLSCAASGSIFSPNAIGWYRQAPGKLRELVAGITGNGLTDYAESVKGRFTISRDNSKNTVYLQMNSLRAEDTAVYYCNLLLNHAEWGQGTLVTVSS
In experiment [6], B3 had a concentration for a half-maximal effect (EC50) of 2.27 ng/mL.

B4: antibody 23-hu48 (antibody, V domains shown)
VH: EVQLVESGGGLVQPGGSLRLSCAASGSIFSPNAIGWYRQAPGKGRELVSGITGNGLTDYAESVKGRFTISRDNSKNTVYLQMNSLRAEDTAVYYCALLLNHAEWGQGTLVTVSS
In turn, B4 displayed a concentration giving a half-maximal response (EC50) in [8] of 76200 ng/mL. The same molecule had a Kd in experiment [7] of 5.1 nM.

B5: antibody 23-hu52 (antibody, V domains shown)
VH: EVQLVESGGGLVQPGGSLRLSCAASGSIFSPQGIGWYRQAPGKGRELVSGITGNGLTDYAESVKGRFTISRDNSKNTVYLQMNSLRAEDTAVYYCALLLNHAEWGQGTLVTVSS
B5: in experiment [9], the EC50 turned out to be 230 ng/mL. For the same molecule, binding in experiment [7] was characterised by a dissociation constant (Kd) of 5.93 nM.

B6: antibody 23-hu44 (antibody, V domains shown)
VH: EVQLVESGGGLVQPGGSLRLSCAASGSIFSPNGIGWYRQAPGKGRELVSGITGNGLTDYAESVKGRFTISRDNSKNTVYLQMNSLRAEDTAVYYCALLLNHAEWGQGTLVTVSS
B6 gave a Kd in experiment [7] of 1.3 nM.

B7: antibody 23-p (antibody, V domains shown)
VH: EVQLVESGGGLVQPGGSLRLSCAASGSIFSPNGIGWYRQAPGKLRELVAGITGNGLTDYAESVKGRFTISRDSAKNTVYLQMNSLKTEDTAVYYCNLLLNHAEWGQGTQVTVSS
In turn, B7 gave an EC50 in [3] of 0.493 nM. The affinity in [7], expressed as Kd, was 1.27 nM.

B8: antibody 18-hu3 (antibody, V domains shown)
VH: EVQLVESGGGLVQPGGSLRLSCAASGIRFSIANMGWYRQAPGKLHEMVAGITSDGFTNYADSVKGRFTISRDNSKNTLYLQMNSLRAEDTAVYYCASFPTRHYWGQGTLVTVSS
notes: also called humanized antibody 18-hu3
For B8, the “IFN-γ secretion by NK cells stimulated with plate-coated antibody, EC50” value in experiment [10] was 8.83 nM. This molecule also displayed an EC50 in experiment [5] of 8.48 ng/mL.

B9: antibody 18-hu4 (antibody, V domains shown)
VH: EVQLVESGGGLVQPGGSLRLSCAASGIRFSIANMGWYRQAPGKLHEMVAGITSDGFTNYADSVKGRFTISRDNSKNTLYLQMNSLRAEDTAVYYCDSFPTRHYWGQGTLVTVSS
Molecule B9 returned an EC50 in [11] of 17 ng/mL.

B10: antibody 18 (antibody, V domains shown)
VH: EVQLVESGGGLVQPGGSLRLSCAAAGIRFSIANMGWYRQAPGKLHEMVAGITSDGFTNYADSVKGRFTISRDNAKNTVYLQMNNLKPEDTAVYYCDSFPTRHYWGQGTQVTVSS
notes: expressed in CHO cells; also called chimeric antibody 18
Turning to B10, in experiment [2], the Kd worked out at 0.302 nM. For the same molecule, the results for the EC50 in experiment [11] and in experiment [5] were 3.62 ng/mL and 2.51 ng/mL, respectively.

B11: antibody 10 (antibody, V domains shown)
VH: QVQLVESGGGLVQPGGSLTLSCAVSGITFSRSVMGWFRQAPGKLRELVAGITSDDNTDYADSVKGRFTISRDNAKNTVYLQMNSLKPEDTAVYYCNILPDSRLGWGQGTQVTVSS
notes: expressed in CHO cells; also called chimeric antibody 10
The molecule B11 came in with a Kd in experiment [2] of 0.201 nM. The EC50 in [5] amounted to 5.22 ng/mL.

B12: antibody 10-hu5 (antibody, V domains shown)
VH: EVQLVESGGGLVQPGGSLRLSCAVSGITFSRSVMGWFRQAPGKLRELVAGITSDDNTDYADSVKGRFTISRDNSKNTLYLQMNSLRAEDTAVYYCNILPDSRLGWGQGTLVTVSS
As for B12, in experiment [5], the EC50 was 10.4 ng/mL.

The values above are taken from patent US20240150460A1 (SHENGHE CHINA BIOPHARMACEUTICAL, published 2024).
